Reference: patent US20090197330A1 (BIOMEDICS, published 2009)

T1: human CD20 antigen (human, UniProt P11836 1-297)
T1 construct: whole, on cells; also called CD20/CHO cells; CD20 on Raji cells
T1 sequence (looked up): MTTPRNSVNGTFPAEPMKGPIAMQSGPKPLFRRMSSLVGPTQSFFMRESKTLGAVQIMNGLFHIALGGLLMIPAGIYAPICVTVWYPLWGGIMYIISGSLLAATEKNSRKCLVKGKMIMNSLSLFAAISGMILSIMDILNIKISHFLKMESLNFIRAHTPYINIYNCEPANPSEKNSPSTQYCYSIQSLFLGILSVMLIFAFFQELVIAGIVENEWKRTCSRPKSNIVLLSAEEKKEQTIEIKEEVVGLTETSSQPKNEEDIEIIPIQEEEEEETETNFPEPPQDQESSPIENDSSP


Tests used:
human CD20 antigen [1] = target: T1, human CD20 antigen; test: Raji cell-ELISA, negative control, concentration not clear
human CD20 antigen [2] = target: T1, human CD20 antigen; test: CD20/CHO cell-ELISA, negative control, concentration not clear
human CD20 antigen [3] = target: T1, human CD20 antigen; test: SB cell-ELISA, negative control, concentration not clear
human CD20 antigen [4] = target: T1, human CD20 antigen; test: SB cell-ELISA, antibody at 1000 ng/ml
Text: (§1) Several murine anti-CD20 monoclonal antibodies and 2B8 were reacted by using 96-well plates to which the SB cells, Raji cells, CD20/CHO cells and CD20 CHO parent cell line were adhered.

human CD20 antigen [5] = target: T1, human CD20 antigen; test: CD20/CHO cell-ELISA, antibody at 320 ng/ml
Text: as §1

human CD20 antigen [6] = target: T1, human CD20 antigen; test: CD20/CHO cell-ELISA, antibody at 100 ng/ml
human CD20 antigen [7] = target: T1, human CD20 antigen; test: SB cell-ELISA, antibody at 320 ng/ml
Text: as §1

human CD20 antigen [8] = target: T1, human CD20 antigen; test: Raji cell-ELISA, antibody at 320 ng/ml
Text: as §1

human CD20 antigen [9] = target: T1, human CD20 antigen; test: Raji cell-ELISA, antibody at 3 ng/ml
human CD20 antigen [10] = target: T1, human CD20 antigen; test: Raji cell-ELISA, antibody at 10 ng/ml
Text: as §1

human CD20 antigen [11] = target: T1, human CD20 antigen; test: Raji cell-ELISA, antibody at 100 ng/ml
Text: as §1

human CD20 antigen [12] = target: T1, human CD20 antigen; test: CD20/CHO cell-ELISA, antibody at 1000 ng/ml
Text: as §1

human CD20 antigen [13] = target: T1, human CD20 antigen; test: SB cell-ELISA, antibody at 32 ng/ml
Text: as §1

human CD20 antigen [14] = target: T1, human CD20 antigen; test: Raji cell-ELISA, antibody at 32 ng/ml
Text: as §1

human CD20 antigen [15] = target: T1, human CD20 antigen; test: Raji cell-ELISA, antibody at 1000 ng/ml
Text: as §1

human CD20 antigen [16] = target: T1, human CD20 antigen; test: SB cell-ELISA, antibody at 10 ng/ml
Text: as §1

human CD20 antigen [17] = target: T1, human CD20 antigen; test: CD20/CHO cell-ELISA, antibody at 10 ng/ml
human CD20 antigen [18] = target: T1, human CD20 antigen; test: CD20/CHO cell-ELISA, antibody at 3 ng/ml
human CD20 antigen [19] = target: T1, human CD20 antigen; test: CD20/CHO cell-ELISA, antibody at 32 ng/ml
human CD20 antigen [20] = target: T1, human CD20 antigen; test: SB cell-ELISA, antibody at 3 ng/ml
human CD20 antigen [21] = target: T1, human CD20 antigen; test: SB cell-ELISA, antibody at 100 ng/ml
Text: as §1

human CD20 antigen [22] = target: T1, human CD20 antigen; test: CD20/CHO cell-ELISA, antibody at 1 ng/ml
Text: (§2) The prepared 8 kinds of chimeric anti-CD20 monoclonal antibodies were examined for reactivity to the human CD20 antigen by the CD20/CHO cell-ELISA. Rituximab (c2B8) was used as a positive control. The values measured in the cell-ELISA (A492) reflect intensity of the binding property.

human CD20 antigen [23] = target: T1, human CD20 antigen; test: CD20/CHO cell-ELISA, antibody at 100 ng/ml; remark: listed apart in the source
Text: as §2

human CD20 antigen [24] = target: T1, human CD20 antigen; test: CD20/CHO cell-ELISA, antibody at 3 ng/ml; remark: listed apart in the source
Text: as §2

human CD20 antigen [25] = target: T1, human CD20 antigen; test: CD20/CHO cell-ELISA, antibody at 32 ng/ml; remark: listed apart in the source
Text: as §2

human CD20 antigen [26] = target: T1, human CD20 antigen; test: CD20/CHO cell-ELISA, antibody at 10 ng/ml; remark: listed apart in the source
Text: as §2

human CD20 antigen [27] = target: T1, human CD20 antigen; test: CD20/CHO cell-ELISA, antibody at 32 ng/ml; remark: listed apart in the source
Text: as §1

human CD20 antigen [28] = target: T1, human CD20 antigen; test: CD20/CHO cell-ELISA, antibody at 100 ng/ml; remark: listed apart in the source
Text: as §1

human CD20 antigen [29] = target: T1, human CD20 antigen; test: CD20/CHO cell-ELISA, antibody at 3 ng/ml; remark: listed apart in the source
Text: as §1

human CD20 antigen [30] = target: T1, human CD20 antigen; test: CD20/CHO cell-ELISA, antibody at 10 ng/ml; remark: listed apart in the source
Text: as §1

Molecule	A492 (human CD20 antigen [4]) [A492]	A492 (human CD20 antigen [5]) [A492]	A492 (human CD20 antigen [7]) [A492]	A492 (human CD20 antigen [8]) [A492]	A492 (human CD20 antigen [10]) [A492]	A492 (human CD20 antigen [11]) [A492]	A492 (human CD20 antigen [12]) [A492]	A492 (human CD20 antigen [13]) [A492]	A492 (human CD20 antigen [14]) [A492]	A492 (human CD20 antigen [15]) [A492]	A492 (human CD20 antigen [16]) [A492]	A492 (human CD20 antigen [21]) [A492]	A492 (human CD20 antigen [22]) [A492]	A492 (human CD20 antigen [23]) [A492]	A492 (human CD20 antigen [24]) [A492]	A492 (human CD20 antigen [25]) [A492]	A492 (human CD20 antigen [26]) [A492]	A492 (human CD20 antigen [27]) [A492]	A492 (human CD20 antigen [28]) [A492]	A492 (human CD20 antigen [29]) [A492]	also measured
NC	–	–	–	–	–	–	–	–	–	–	–	–	–	–	–	–	–	–	–	–	A492 (human CD20 antigen [1]): 0.035 A492; A492 (human CD20 antigen [2]): 0.07 A492; A492 (human CD20 antigen [3]): 0.028 A492
2B8 (antibody)	0.337	1.66	0.091	0.121	0.034	0.055	2.29	0.038	0.038	0.329	0.037	0.045	–	–	–	–	–	–	–	–	A492 (human CD20 antigen [6]): 1.09 A492; A492 (human CD20 antigen [9]): 0.046 A492; A492 (human CD20 antigen [17]): 0.174 A492; A492 (human CD20 antigen [18]): 0.089 A492; A492 (human CD20 antigen [19]): 0.561 A492; A492 (human CD20 antigen [20]): 0.053 A492
chimeric anti-CD20 monoclonal antibody c1K1782 (antibody, V domains shown, Murine variable regions fused to human immunoglobulin H chain and L chain (kappa) constant regions of vector pNOW-Ab) VH: QVQLQQSGAELAKPGASVKMSCKASGYTFTSYWMHWVKQRPGQGLEWIGYITPSTGYTDYNKKFKDKATLTADRSSSTAYMHLSSLTSEDSAVYYCARSGPYFDVWGAGTTVTVSS VL: DILLTQSPAILFVSPGERVSLSCRASQNIGTSIHWYQQRTNGSPRLLIKYASESFSGIPSRFSGSGSGTDFTLSINSVESEDIADYYCQQSNSWPFTFGSGTKLEIK	–	–	–	–	–	–	–	–	–	–	–	–	0.074	2.1	0.169	1.02	0.505	–	–	–	–
murine anti-CD20 monoclonal antibody 1K1402 (antibody, V domains shown, Mouse monoclonal antibody from a hybridoma) VH: QVQLQQPGAELVKPGASVKMSCKASGFTFTSYNMHWVKQTPGQGLEWIGGIYPGNGDTSYNQKFKGKATLTADKSSSTAYMQLSSLTSEDSAVYYCARFYYYGSMGAMDYWGQGTSVTVSS VL: QIVLSQSPAILSASPGEKVTMTCRASSSVSYMHWYQQKPGSSPKPWIYATSNLASGVPARFSGSGSGTSYSLTITRVEAEDAATYYCQQWTFNPPTFGAGTKLELK	0.763	1.57	0.4	0.525	0.061	0.214	1.88	0.095	0.102	1.23	0.066	0.152	–	–	–	–	–	0.824	1.49	0.174	A492 (human CD20 antigen [30]): 0.389 A492
Rituximab (c2B8) (antibody, V domains shown) VH: QVQLQQPGAELVKPGASVKMSCKASGYTFTSYNMHWVKQTPGRGLEWIGAIYPGNGDTSYNQKFKGKATLTADKSSSTAYMQLSSLTSEDSAVYYCARSTYYGGDWYFNVWGAGTTVTVSA VL: QIVLSQSPAILSASPGEKVTMTCRASSSVSYIHWFQQKPGSSPKPWIYATSNLASGVPVRFSGSGSGTSYSLTISRVEAEDAATYYCQQWTSNPPTFGGGTKLEIK	–	–	–	–	–	–	–	–	–	–	–	–	0.088	2.15	0.226	1.14	0.536	–	–	–	–
murine anti-CD20 monoclonal antibody 1K1228 (antibody, V domains shown, Mouse monoclonal antibody from a hybridoma, purified on protein G) VH: QVQLQQPGAELVKPGASVKVSCKASGFTFTSYNLHWVKQTPGQGLVWIGAIYPGNGDTSYNQKFRGKATLTADISSSTAYMQLSSLTSEDSAVYYCARYYYGYDAMDYWGQGTSVTVSS VL: EIILTQSPTTMAASPGEKITITCSASSSISSYYLRWYQQKPGFSPKVLIYRTSNLASGVPARFSGSGSGTSYSLTIGTMEAEDVATYYCQQGNTVPLTFGSGTKLEIK	1.26	2.7	0.931	1.17	0.148	0.678	3.06	0.192	0.326	1.68	0.082	0.452	–	–	–	–	–	1.27	2.09	0.265	A492 (human CD20 antigen [30]): 0.572 A492
chimeric anti-CD20 monoclonal antibody c1K1791 (antibody, V domains shown, Murine variable regions fused to human immunoglobulin H chain and L chain (kappa) constant regions of vector pNOW-Ab) VH: QIQLVQSGPELKKPGETVKISCKASGYTFTNFGVNWVKQAPGKGLKWMGWINTYTGEPSYADDFKGRFAFSLEASANTAYLQINNLKNDDMSTYFCTRRTNYYGTSYYYAMDYWGQGTSVTVSS VL: STVMTQTPKFLLVSAGDRVTITCKASQSVSNDVAWYQQKPGQSPKVLIYFASNRYTGVPDRFTGSGYGTDFTFTINTVQAEDLAVYFCQQDYSSPLTFGAGTKLELK	–	–	–	–	–	–	–	–	–	–	–	–	0.108	2.23	0.276	1.46	0.745	–	–	–	–
murine anti-CD20 monoclonal antibody 1K1422 (antibody, V domains shown, Mouse monoclonal antibody from a hybridoma) VH: QVQLQQPGAELVKPGASVKMSCRASGYTFTNYNMHWIKQTPGQGLEWIGAIYPGSGDTSYNRKFKGKATLTADTSSSTAYMQFSSLTSADSAVYYCARFTYYYGGTYGAMDYWGQGTSVTVSL VL: QIVLTQSPPIMSASLGEEITLTCSASSRVSYMLWYQQKSGTSPKLLIYSTSNLASGVPSRFSGSGSGTFYSLTISSVEAEDAADYYCHQWTSNPCTFGGGTKLEIK	0.403	1.33	0.147	0.277	0.046	0.121	2.23	0.039	0.057	0.748	0.036	0.071	–	–	–	–	–	0.238	0.842	0.068	A492 (human CD20 antigen [30]): 0.105 A492
